The record followed here is US11739161B2, “Methods for treating and diagnosing prostate cancer” (Tufts Medical Center, Inc., priority 2017, dated 2023).

What all share (assay type): cell-based, human
Assay [1] relates to AKT and S6 phosphorylation in PC-3 cells. The experiment in a line: RNASE4-induced phosphorylation of AKT and S6 (immunoblot). The conditions noted are these: serum-starved PC-3, RNASE4 1 μg/ml, time course. The procedure:
(§1) FIGS. 11A-F. RNASE4 induces PC-3 cell proliferation and phosphorylation of AKT and S6. (A) Exogenous RNASE4 (1 μg/ml) stimulates PC-3 cells proliferation in the presence of 2% FBS. Cell numbers were determined by MTT assay. (B) Time course of AKT and S6 phosphorylation of serum-starved PC-3 cells by RNASE4 (1 μg/ml). Left panels, immunoblots; right panels, quantification of p-AKT and p-S6 normalized to total AKT and S6 by Image J. (C) Effect of AKT inhibitor MK-2206, PI3K inhibitors LY294002 and Wortmannin, and mTOR inhibitor Rapamycin on RNASE4-induced PC-3 cell proliferation. Cells were pre-incubated with the inhibitors at the indicated concentrations for 1 hour prior to be stimulated by RNASE4 (1 μg/ml) for 3 days. Cell numbers were determined by MTT assay. (D) Human phospho-RTK antibody array analysis of starved PC-3 cells treated with or without 1 μg/ml RNASE4 for 5 minutes. (E) Time course of AXL phosphorylation stimulated by RNASE4 in PC-3 cells. Serum-starved PC-3 cells were treated with 1 μg/ml RNASE4 for different time. Cell lysates were analyzed for total AXL and phopho-AXL by immunoblotting. Left panels, immunoblots; right panel, quantification phospho-AXL normalized to total AXL by Image J analysis. (F) Effect of AXL inhibitor R428 on RNASE4-induced PC-3 cell proliferation. […] Cell numbers were determined by MTT assay. […]

The test system of assay [2] is AXL phosphorylation in DU145 cells. The experiment in a line: AXL phosphorylation (phospho-RTK array, immunoblot). The conditions noted are these: serum-starved DU145, 1 μg/ml protein. As to the method:
FIGS. 12A-F. RNASE4 induces AXL phosphorylation. (A) Human phospho-receptor tyrosine kinase (RTK) antibody array analysis. Serum-starved DU145 cells were treated with or without 1 μg/ml of RNASE4 for 5 minutes. A total of 1.5 mg cell lysate protein was blotted on each array membrane. […] (B) Immunoblot analysis of RNASE4-stimulated AXL phosphorylation. DU145 cells were serum-starved overnight and treated with 1 μg/ml of RNASE4 for the indicated time. Cell lysates were analyzed by antibodies against total AXL and phospho-AXL, with β-actin as the loading control. Left panels, immunoblots; right panel, Image J quantification of p-AXL normalized to total AXL. (C) Immunoblot analysis of phospho-AXL in response to stimulation by ANG, RNase A, and RNASE4. DU145 cells were serum-starved overnight and treated with 1 μg/ml of ANG, RNase A, or RNASE4 for 15 minutes. Left panels, immunoblots; right panel, quantification. (D) Effect of AXL inhibitor R428 on RNASE4-induced cell proliferation. Serum-starved DU145 cells were incubated with 1 or 3 μM R428 for 3 hours and then stimulated by 1 μg/ml of RNASE4 for 3 days. Cell numbers were determined by MTT assay. Data shown are means±SEM of a representative experiment (in triplicates) of 3 independent repeats. **P≤0.01 and ***P≤0.001, by unpaired two-tailed Student's t test. (E) Effect of AXL inhibitor R428 on RNASE4-induced AKT and P6 phosphorylation. Serum-starved DU145 cells were incubated with 1 or 3 μM R428 for 3 hours and then stimulated by 1 μg/ml of RNASE4 for 5 minutes. Cell lysates were analyzed for AKT and P6 phosphorylation by immunoblotting. Top panels, immunoblots; bottom panels, quantification of phospho-AKT and phospho-S6 by Image J analyses normalized to total AKT and P6, respectively. (F) Schematic presentation of proposed involvement of AXL in RNASE4-stimulated cellular events.
(§2) Human Phospho-RTK Arrays were purchased from R&D Systems. […] Protein concentrations were quantified by Bradford Assay and 1.5 mg cell lysate was used per array. Pixel densities on were analyzed by ImageJ. […]

The subject of assay [3] is AXL phosphorylation in PC-3 cells. Described as above. The conditions noted are these: serum-starved PC-3, 1 μg/ml RNASE4. As to the method: as §1, with “Serum-starved PC-3 cells were treated with 1 μg/ml RNASE4 for different time.” left out, “analysis.” for “analysis. (F) Effect of AXL inhibitor R428 on RNASE4-induced PC-3 cell proliferation.”
as §2

The next assay deals with DU145 cells. Put plainly: RNASE4 knockdown, colony formation in soft agar. The conditions noted are these: DU145, exogenous RNASE4 1 μg/ml, 14 days. The text has this: FIGS. 14A-D. RNASE4 knockdown inhibits DU145 cell proliferation in vitro and colony formation in soft agar. (A) Immunoblot analysis of RNASE4 in DU145 cells stably transfected with shControl, shRNASE4-1, and shRNASE4-2. (B) qRT-PCR analysis of RNASE4 mRNA normalized to GAPDH in DU145 cells stably transfected with shControl, shRNASE4-1, and shRNASE4-2. (C) Effect of RNASE4 knockdown on cell proliferation. Cell numbers were counted by Coulter counter. Exogenous RNASE4, when presented, was at the concentration of 1 μg/ml. Data shown are from a representative experiment in triplicates of 3 independent experiments. (D) Effects of RNASE4 knockdown on colonies formation and growth of DU145 cells in soft agar. The same numbers of control and RNASE4 knockdown cells were seeded in soft agar, and grown in the absence or presence of 1 μg/ml of RNASE4 for 14 days. Colonies were counted and size measured on a Nikon Eclipse ti microscope. Top panels, representative images of colonies; scale bars=100 μm. Bottom panels, quantification of DU145 cell colonies and sizes in soft agar. Data shown are means±SEM of five randomly selected fields per dish from a representative experiment. **P≤0.01 and ***P≤0.001, by two-tailed Student's t test.
Lentiviral mediated shRNA system (pGIPZ, Open Biosystems) was used to generate control and RNASE4 knockdown cell lines. […]

B1: RNASE4: recombinant human RNASE4 protein from pET11 expression in E. coli, purified by reversed-phase HPLC; added exogenously (protein, UniProt P34096 29-147, looked up)
Ribonuclease 4: QDGMYQRFLRQHVHPEETGGSDRYCNLMMQRRKMTLYHCKRFNTFIHEDIWNIRSICSTTNIQCKNGKMNCHEGVVKVTDCRDTGSSRAPNCRYRAIASTRRVVIACEGNPQVPVHFDG
Consider B1, for which the “activation (phosphorylation) of AKT and S6” value in assay [1] was “rapidly and continuously activated”. For the same molecule, the “phosphorylation of AXL” value in assay [2] and in assay [3] was “induced phosphorylation” in each case. In addition, the “rescue of the effect of RNASE4 knockdown on colony formation” value with DU145 cells was “able to rescue”.
